This assay addresses SecYEG labeled at SecY residue 292 with AF488 (E. coli) (UniProt P0AGA2). Nature of the assay: FRET or BRET.
The substance “SecA-PhoA chimera labeled at PhoA residue 45 with AF647” had an FRET efficiency of 0.3.

Turning to “SecA-PhoA chimera labeled at PhoA residue 37 with AF647”, the FRET efficiency was found to be 0.24.

On to “SecA-PhoA chimera labeled at PhoA residue 22 with AF647”, for which the FRET efficiency came out at 0.46.

Consider “SecA-PhoA chimera labeled at PhoA residue 2 with AF647”, for which the FRET efficiency stood at 0.25.

These data come from publication PMC10639101.
